Blank lines part the entries; values can stand above or below the molecule they belong to.
Legend:
[1] = system: cystic fibrosis; details: J Cyst Fibros. 2013; cited from earlier work
[2] = system: COPD; details: Am J Respir Crit Care Med. 2015; worsened in the placebo group; cited from earlier work
[3] = known values for commercially available antibodies (FIG. 19); cited from earlier work
[4] = system: soluble forms of FcγRIa and FcγRIIIa in human and cynomolgus monkey; assay: Binding to various FcγRs (BIACORE T200); details: 20° C., HBS-EP+ (FIG. 27)
Experimental: Soluble FcγRIa and FcγRIIIa in both human and cynomolgus monkey were produced in the form of His-tagged molecules by methods known to those of ordinary skill in the art. […] Next, soluble FcγRIa or FcγRIIIa was injected with a running buffer (used as a reference solution), and was made to interact with the antibodies captured onto the sensor chip. HBS-EP+ (GE Healthcare) was used as the running buffer, and HBS-EP+ was also used to dilute the soluble FcγRIa or FcγRIIIa. […] All measurements were carried out at 20° C.

Molecule: O=C(Nc1ccc(Cl)c(S(=O)(=O)N2CCNCC2)c1O)Nc1cccc(F)c1Cl [Elubrixin]
topical neutrophil migration in cystic fibrosis [1]: Topical neutrophil migration was observed to be suppressed

Molecule: CC[C@@H](Nc1c(Nc2cccc(C(=O)N(C)C)c2O)c(=O)c1=O)c1ccc(C)o1 [MK7123]
pulmonary function (FEV1) in COPD patients [2]: pulmonary function (FEV1) was improved in the active drug group

Molecule: Alemtuzumab [Campath]
frequency of ADA development in humans [3]: 45%

Molecule: Daclizumab [Zenapax]
frequency of ADA development in humans [3]: 14%

binding to FcγRs (hFcγRIa, hFcγRIIIa, cynoFcγRIa, cynoFcγRIIIa) [4]: bind to all FcγRs
B1: H1009/L395-F1886m: variable region of H1009/L395 with Fc variant F1886m (antibody)
heavy: QVQLVESGGGLVQPGGSLRLSCAASGFTFSDYYLSWVRQAPGKGLEWVGLIRNKDNYHTPEYSASVKGRFTISRDDSKNSLYLTMSDLKTEDTAVYYCARENHRYDVELAYWGQGTLVTVSSASTKGPSVFPLAPSSKSTSGGTAALGCLVKDYFPEPVTVSWNSGALTSGVHTFPAVLQSSGLYSLSSVVTVPSSSLGTQTYICNVNHKPSNTKVDKKVEPKSCDKTHTCPPCPAPELLGGPSVFLFPPKPKDTLMISRTPEVTCVVVDVSHEDPEVKFNWYVDGVEVHNAKTKPREEQYNSTYRVVSVLTVLHQDWLNGKEYKCKVSNKALPAPIEKTISKAKGQPREPQVYTLPPSREEMTKNQVSLTCLVKGFYPSDIAVEWESNGQPENNYKTTPPVLDSDGSFFLYSKLTVDKSRWQQGNVFSCSVLHEALHAHTTRKELSLSP
light: DIQMTQSPSSLSASVGDRVTITCRASEIIYSYLAWYQQKPGKAPKLLIYKAKTHADGVPSRFSGSGSGTDFTFTISSLQPEDIATYYCKHHFGFPRTFGQGTKVEIKRTVAAPSVFIFPPSDEQLKSGTASVVCLLNNFYPREAKVQWKVDNALQSGNSQESVTEQDSKDSTYSLSSTLTLSKADYEKHKVYACEVTHQGLSSPVTKSFNRGEC

Reference: patent US20240083996A1, “COMPOSITION FOR PROPHYLAXIS OR TREATMENT OF IL-8 RELATED DISEASES” (Chugai Seiyaku Kabushiki Kaisha, priority 2016, published 2024)
